Measured values from patent US7657380.

T1: human CD30 (commercial, conjugated to digoxigenin) (human, UniProt P28908 19-379, limits assumed, conjugated to digoxigenin (DIG))
T1 sequence (looked up): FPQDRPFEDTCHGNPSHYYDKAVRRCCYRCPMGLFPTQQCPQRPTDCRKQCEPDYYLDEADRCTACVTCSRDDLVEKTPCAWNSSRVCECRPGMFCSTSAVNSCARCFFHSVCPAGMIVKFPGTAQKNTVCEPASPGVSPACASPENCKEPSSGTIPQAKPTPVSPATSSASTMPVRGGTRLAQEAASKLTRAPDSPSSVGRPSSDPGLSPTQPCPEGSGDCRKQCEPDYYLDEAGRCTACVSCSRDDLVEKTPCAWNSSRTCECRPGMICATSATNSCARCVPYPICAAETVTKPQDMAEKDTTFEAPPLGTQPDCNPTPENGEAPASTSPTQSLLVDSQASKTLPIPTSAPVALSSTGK


Molecular target: T1, human CD30 (commercial, conjugated to …)
Assay: AlphaScreen competition

Binder | Fold IC50 vs H3/L3
AC10 H3.1/L3 (antibody, IgG1, name in Kabat numbering, V domains shown) VH: EIQLVQSGPEVKKPGASVKVSCKASGYTFTDYYITWVRQAPGQGLEWMGWIYPGSGNTKYNEKFQGRFVFSVDTSASTAYLQISSLKAEDTAVYFCANYGNYWFAYWGQGTLVTVSS VL: DIVLTQSPDSLAVSLGERATINCKASQSVDFDGDSYMNWYQQKPGQPPKVLIYAASNLESGIPARFSGSGSGTDFTLTINSLEAEDAATYYCQQSNEDPWTFGGGTKVEIK | 1 fold
AC10 H3.8/L3 (antibody, IgG1, name in Kabat numbering, V domains shown) VH: QIQLVQSGPEVKKPGASVKVSCKASGYTFTGYYITWVRQAPGQGLEWMGWIYPGSGNTKYNEKFQGRFVFSVDTSASTAYLQISSLKAEDTAVYFCANYGNYWFAYWGQGTLVTVSS VL: DIVLTQSPDSLAVSLGERATINCKASQSVDFDGDSYMNWYQQKPGQPPKVLIYAASNLESGIPARFSGSGSGTDFTLTINSLEAEDAATYYCQQSNEDPWTFGGGTKVEIK | 1.4 fold
AC10 H3.5/L3 (antibody, IgG1, name in Kabat numbering, V domains shown) VH: QIQLVQSGAEVKKPGASVKVSCKASGYTFTDYYITWVRQAPGQGLEWMGWIYPGSGNTKYNEKFQGRFVFSVDTSASTAYLQISSLKAEDTAVYFCANYGNYWFAYWGQGTLVTVSS VL: DIVLTQSPDSLAVSLGERATINCKASQSVDFDGDSYMNWYQQKPGQPPKVLIYAASNLESGIPARFSGSGSGTDFTLTINSLEAEDAATYYCQQSNEDPWTFGGGTKVEIK | 1.29 fold
AC10 H3.13/L3 (antibody, IgG1, name in Kabat numbering, V domains shown) VH: QIQLVQSGPEVKKPGASVKVSCKASGYTFTDYYLTWVRQAPGQGLEWMGWIYPGSGNTKYNEKFQGRFVFSVDTSASTAYLQISSLKAEDTAVYFCANYGNYWFAYWGQGTLVTVSS VL: DIVLTQSPDSLAVSLGERATINCKASQSVDFDGDSYMNWYQQKPGQPPKVLIYAASNLESGIPARFSGSGSGTDFTLTINSLEAEDAATYYCQQSNEDPWTFGGGTKVEIK | 1.52 fold
AC10 H3.16/L3 (antibody, IgG1, name in Kabat numbering, V domains shown) VH: QIQLVQSGPEVKKPGASVKVSCKASGYTFTDYYIGWVRQAPGQGLEWMGWIYPGSGNTKYNEKFQGRFVFSVDTSASTAYLQISSLKAEDTAVYFCANYGNYWFAYWGQGTLVTVSS VL: DIVLTQSPDSLAVSLGERATINCKASQSVDFDGDSYMNWYQQKPGQPPKVLIYAASNLESGIPARFSGSGSGTDFTLTINSLEAEDAATYYCQQSNEDPWTFGGGTKVEIK | 0.15 fold
AC10 H3.7/L3 (antibody, IgG1, name in Kabat numbering, V domains shown) VH: QIQLVQSGPEVKKPGASVKVSCKVSGYTFTDYYITWVRQAPGQGLEWMGWIYPGSGNTKYNEKFQGRFVFSVDTSASTAYLQISSLKAEDTAVYFCANYGNYWFAYWGQGTLVTVSS VL: DIVLTQSPDSLAVSLGERATINCKASQSVDFDGDSYMNWYQQKPGQPPKVLIYAASNLESGIPARFSGSGSGTDFTLTINSLEAEDAATYYCQQSNEDPWTFGGGTKVEIK | 4.45 fold
AC10 H3.9/L3 (antibody, IgG1, name in Kabat numbering, V domains shown) VH: QIQLVQSGPEVKKPGASVKVSCKASGYTFTSYYITWVRQAPGQGLEWMGWIYPGSGNTKYNEKFQGRFVFSVDTSASTAYLQISSLKAEDTAVYFCANYGNYWFAYWGQGTLVTVSS VL: DIVLTQSPDSLAVSLGERATINCKASQSVDFDGDSYMNWYQQKPGQPPKVLIYAASNLESGIPARFSGSGSGTDFTLTINSLEAEDAATYYCQQSNEDPWTFGGGTKVEIK | 1.65 fold
AC10 H3.11/L3 (antibody, IgG1, name in Kabat numbering, V domains shown) VH: QIQLVQSGPEVKKPGASVKVSCKASGYTFTDYGITWVRQAPGQGLEWMGWIYPGSGNTKYNEKFQGRFVFSVDTSASTAYLQISSLKAEDTAVYFCANYGNYWFAYWGQGTLVTVSS VL: DIVLTQSPDSLAVSLGERATINCKASQSVDFDGDSYMNWYQQKPGQPPKVLIYAASNLESGIPARFSGSGSGTDFTLTINSLEAEDAATYYCQQSNEDPWTFGGGTKVEIK | 0.73 fold
AC10 H3.17/L3 (antibody, IgG1, name in Kabat numbering, V domains shown) VH: QIQLVQSGPEVKKPGASVKVSCKASGYTFTDYYIHWVRQAPGQGLEWMGWIYPGSGNTKYNEKFQGRFVFSVDTSASTAYLQISSLKAEDTAVYFCANYGNYWFAYWGQGTLVTVSS VL: DIVLTQSPDSLAVSLGERATINCKASQSVDFDGDSYMNWYQQKPGQPPKVLIYAASNLESGIPARFSGSGSGTDFTLTINSLEAEDAATYYCQQSNEDPWTFGGGTKVEIK | 0.04 fold
AC10 H3.2/L3 (antibody, IgG1, name in Kabat numbering, V domains shown) VH: QLQLVQSGPEVKKPGASVKVSCKASGYTFTDYYITWVRQAPGQGLEWMGWIYPGSGNTKYNEKFQGRFVFSVDTSASTAYLQISSLKAEDTAVYFCANYGNYWFAYWGQGTLVTVSS VL: DIVLTQSPDSLAVSLGERATINCKASQSVDFDGDSYMNWYQQKPGQPPKVLIYAASNLESGIPARFSGSGSGTDFTLTINSLEAEDAATYYCQQSNEDPWTFGGGTKVEIK | 2.76 fold
AC10 H3.3/L3 (antibody, IgG1, name in Kabat numbering, V domains shown) VH: QMQLVQSGPEVKKPGASVKVSCKASGYTFTDYYITWVRQAPGQGLEWMGWIYPGSGNTKYNEKFQGRFVFSVDTSASTAYLQISSLKAEDTAVYFCANYGNYWFAYWGQGTLVTVSS VL: DIVLTQSPDSLAVSLGERATINCKASQSVDFDGDSYMNWYQQKPGQPPKVLIYAASNLESGIPARFSGSGSGTDFTLTINSLEAEDAATYYCQQSNEDPWTFGGGTKVEIK | 0.68 fold
AC10 H3.6/L3 (antibody, IgG1, name in Kabat numbering, V domains shown) VH: QIQLVQSGPEVKKPGTSVKVSCKASGYTFTDYYITWVRQAPGQGLEWMGWIYPGSGNTKYNEKFQGRFVFSVDTSASTAYLQISSLKAEDTAVYFCANYGNYWFAYWGQGTLVTVSS VL: DIVLTQSPDSLAVSLGERATINCKASQSVDFDGDSYMNWYQQKPGQPPKVLIYAASNLESGIPARFSGSGSGTDFTLTINSLEAEDAATYYCQQSNEDPWTFGGGTKVEIK | 1.13 fold
AC10 H3.4/L3 (antibody, IgG1, name in Kabat numbering, V domains shown) VH: QVQLVQSGPEVKKPGASVKVSCKASGYTFTDYYITWVRQAPGQGLEWMGWIYPGSGNTKYNEKFQGRFVFSVDTSASTAYLQISSLKAEDTAVYFCANYGNYWFAYWGQGTLVTVSS VL: DIVLTQSPDSLAVSLGERATINCKASQSVDFDGDSYMNWYQQKPGQPPKVLIYAASNLESGIPARFSGSGSGTDFTLTINSLEAEDAATYYCQQSNEDPWTFGGGTKVEIK | 1.28 fold
AC10 H3.14/L3 (antibody, IgG1, name in Kabat numbering, V domains shown) VH: QIQLVQSGPEVKKPGASVKVSCKASGYTFTDYYMTWVRQAPGQGLEWMGWIYPGSGNTKYNEKFQGRFVFSVDTSASTAYLQISSLKAEDTAVYFCANYGNYWFAYWGQGTLVTVSS VL: DIVLTQSPDSLAVSLGERATINCKASQSVDFDGDSYMNWYQQKPGQPPKVLIYAASNLESGIPARFSGSGSGTDFTLTINSLEAEDAATYYCQQSNEDPWTFGGGTKVEIK | 1.62 fold
AC10 H3.12/L3 (antibody, IgG1, name in Kabat numbering, V domains shown) VH: QIQLVQSGPEVKKPGASVKVSCKASGYTFTDYWITWVRQAPGQGLEWMGWIYPGSGNTKYNEKFQGRFVFSVDTSASTAYLQISSLKAEDTAVYFCANYGNYWFAYWGQGTLVTVSS VL: DIVLTQSPDSLAVSLGERATINCKASQSVDFDGDSYMNWYQQKPGQPPKVLIYAASNLESGIPARFSGSGSGTDFTLTINSLEAEDAATYYCQQSNEDPWTFGGGTKVEIK | 0 fold
